Patent US20090099091A1 (Stanford University, published 2009)

Experiments:
Mushroom tyrosinase [1] = target: T1, Mushroom tyrosinase (mushroom, UniProt C7FF04 1-392); experiment: cell-based or functional assay
Mushroom tyrosinase [2] = target: T1, Mushroom tyrosinase; experiment: cell-based or functional assay; remark: listed apart in the source

T1 sequence (C7FF04 1-392): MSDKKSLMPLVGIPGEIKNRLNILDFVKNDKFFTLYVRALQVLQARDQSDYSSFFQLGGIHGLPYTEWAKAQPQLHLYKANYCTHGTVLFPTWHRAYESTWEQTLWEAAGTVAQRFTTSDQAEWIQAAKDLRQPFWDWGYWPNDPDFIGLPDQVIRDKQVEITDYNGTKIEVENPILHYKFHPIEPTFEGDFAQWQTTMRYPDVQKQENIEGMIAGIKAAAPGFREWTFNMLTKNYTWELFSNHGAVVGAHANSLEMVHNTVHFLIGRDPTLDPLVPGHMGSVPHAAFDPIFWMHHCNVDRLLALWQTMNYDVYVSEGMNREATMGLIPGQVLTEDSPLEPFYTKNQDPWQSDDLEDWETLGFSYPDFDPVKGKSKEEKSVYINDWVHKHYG

Row | Binder | IC50 (inhibition of mushroom tyrosinase, dopachrome absorbance at 475 nM) (Mushroom tyrosinase [1]) | IC50 (inhibition of mushroom tyrosinase) (Mushroom tyrosinase [2])
1 | KFEKKFEK [KFEKKFEK (KF peptide)] | 3600 µM | 
2 | YRSRKYSSWY [YRSRKYSSWY (YR peptide)] | 40 µM | 40 µM
